Laboratory results reported in US20140072613A1, “Compositions and Methods for Treating Cutaneous Scarring” (priority 2012, published 2014).

Tests used:
Assay in all cases: cell-based or functional assay
Rsk2(h) (human) = Rsk2(h) (human) (UniProt P51812)
Axl(h) (human) = molecular target: T1, Axl(h) (human) (UniProt P30530)
T1 sequence (looked up): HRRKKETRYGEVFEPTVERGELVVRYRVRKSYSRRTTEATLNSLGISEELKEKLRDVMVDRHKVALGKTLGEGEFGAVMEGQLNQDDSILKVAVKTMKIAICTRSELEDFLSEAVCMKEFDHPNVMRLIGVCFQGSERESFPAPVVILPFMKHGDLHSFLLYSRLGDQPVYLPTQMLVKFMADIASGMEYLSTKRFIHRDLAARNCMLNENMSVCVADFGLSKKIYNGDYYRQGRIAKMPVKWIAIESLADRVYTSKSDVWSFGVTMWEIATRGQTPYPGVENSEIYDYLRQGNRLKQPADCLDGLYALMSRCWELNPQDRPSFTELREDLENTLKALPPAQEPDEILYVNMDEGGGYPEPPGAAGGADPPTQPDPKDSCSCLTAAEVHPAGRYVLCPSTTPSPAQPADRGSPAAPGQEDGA

IR(h) (human) = IR(h) (human) (UniProt P06213)
Hck(h) activated (human) = Hck(h) activated (human) (UniProt P08631)
cKit(V654A)(h) (human) = cKit(V654A)(h) (human) (UniProt P10721)
Bmx(h) (human) = molecular target: T2, Bmx(h) (human) (UniProt P51813)
T2 sequence (looked up): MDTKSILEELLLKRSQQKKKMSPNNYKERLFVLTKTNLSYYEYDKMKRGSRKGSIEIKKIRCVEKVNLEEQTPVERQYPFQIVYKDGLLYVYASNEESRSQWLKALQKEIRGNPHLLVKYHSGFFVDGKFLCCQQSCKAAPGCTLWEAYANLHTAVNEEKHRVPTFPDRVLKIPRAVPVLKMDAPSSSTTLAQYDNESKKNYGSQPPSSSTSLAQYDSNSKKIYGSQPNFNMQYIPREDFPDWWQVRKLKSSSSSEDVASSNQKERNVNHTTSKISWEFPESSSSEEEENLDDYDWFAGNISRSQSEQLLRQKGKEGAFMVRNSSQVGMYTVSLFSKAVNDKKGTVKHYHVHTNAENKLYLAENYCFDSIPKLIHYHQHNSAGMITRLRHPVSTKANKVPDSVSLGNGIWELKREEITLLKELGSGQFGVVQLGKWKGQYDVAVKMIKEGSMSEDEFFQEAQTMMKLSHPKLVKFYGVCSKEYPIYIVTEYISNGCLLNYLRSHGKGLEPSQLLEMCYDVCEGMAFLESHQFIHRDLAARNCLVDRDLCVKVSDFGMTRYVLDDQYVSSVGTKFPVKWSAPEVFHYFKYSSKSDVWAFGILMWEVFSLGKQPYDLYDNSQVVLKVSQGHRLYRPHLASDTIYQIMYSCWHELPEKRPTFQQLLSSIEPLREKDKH

SAPK2a(T106M)(h) (human) = SAPK2a(T106M)(h) (human) (UniProt Q16539)
PKCε(h) (human) = PKCε(h) (human) (UniProt Q02156)
CK2(h) (human) = molecular target: CK2(h) (human)
SGK2(h) (human) = molecular target: T3, SGK2(h) (human) (UniProt Q9HBY8)
T3 sequence (looked up): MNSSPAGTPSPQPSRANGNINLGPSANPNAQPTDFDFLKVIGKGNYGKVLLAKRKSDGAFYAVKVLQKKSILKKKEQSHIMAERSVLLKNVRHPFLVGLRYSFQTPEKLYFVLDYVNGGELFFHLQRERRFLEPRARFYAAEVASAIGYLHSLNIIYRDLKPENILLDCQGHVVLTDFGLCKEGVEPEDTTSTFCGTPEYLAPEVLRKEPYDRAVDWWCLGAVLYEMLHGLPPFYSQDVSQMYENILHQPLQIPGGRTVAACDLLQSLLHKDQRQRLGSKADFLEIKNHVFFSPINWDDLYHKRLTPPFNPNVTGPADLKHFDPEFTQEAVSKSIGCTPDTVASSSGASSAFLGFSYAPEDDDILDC

EphA5(h) (human) = molecular target: T4, EphA5(h) (human) (UniProt P54756)
T4 sequence (looked up): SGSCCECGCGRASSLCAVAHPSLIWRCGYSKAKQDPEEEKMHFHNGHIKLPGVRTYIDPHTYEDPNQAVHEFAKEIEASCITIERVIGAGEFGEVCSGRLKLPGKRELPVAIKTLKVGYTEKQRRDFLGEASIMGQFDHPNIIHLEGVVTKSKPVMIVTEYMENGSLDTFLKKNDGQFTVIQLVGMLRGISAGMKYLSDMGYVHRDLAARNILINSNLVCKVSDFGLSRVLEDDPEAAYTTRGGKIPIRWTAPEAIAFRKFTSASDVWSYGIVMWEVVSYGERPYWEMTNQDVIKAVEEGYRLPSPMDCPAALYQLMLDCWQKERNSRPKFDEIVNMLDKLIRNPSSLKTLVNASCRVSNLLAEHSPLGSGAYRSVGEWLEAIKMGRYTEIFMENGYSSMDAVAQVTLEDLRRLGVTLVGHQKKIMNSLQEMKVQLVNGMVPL

TLK2(h) (human) = TLK2(h) (human) (UniProt Q86UE8)
Met(M1268T)(h) (human) = Met(M1268T)(h) (human) (UniProt P08581)
PAK5(h) (human) = PAK5(h) (human) (UniProt Q9P286)
JNK2α2(h) (human) = JNK2α2(h) (human) (UniProt P45984)

Sequence of Hck(h) activated (human) (P08631 251-518 limits assumed): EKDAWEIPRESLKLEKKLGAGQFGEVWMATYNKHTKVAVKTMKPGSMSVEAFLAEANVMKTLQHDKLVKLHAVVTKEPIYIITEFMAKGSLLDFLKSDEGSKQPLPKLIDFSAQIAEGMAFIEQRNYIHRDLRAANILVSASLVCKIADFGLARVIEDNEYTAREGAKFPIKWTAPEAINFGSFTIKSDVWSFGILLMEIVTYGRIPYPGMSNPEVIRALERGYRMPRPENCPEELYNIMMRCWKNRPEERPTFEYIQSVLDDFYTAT
Sequence of PKCε(h) (human) (Q02156 whole entry): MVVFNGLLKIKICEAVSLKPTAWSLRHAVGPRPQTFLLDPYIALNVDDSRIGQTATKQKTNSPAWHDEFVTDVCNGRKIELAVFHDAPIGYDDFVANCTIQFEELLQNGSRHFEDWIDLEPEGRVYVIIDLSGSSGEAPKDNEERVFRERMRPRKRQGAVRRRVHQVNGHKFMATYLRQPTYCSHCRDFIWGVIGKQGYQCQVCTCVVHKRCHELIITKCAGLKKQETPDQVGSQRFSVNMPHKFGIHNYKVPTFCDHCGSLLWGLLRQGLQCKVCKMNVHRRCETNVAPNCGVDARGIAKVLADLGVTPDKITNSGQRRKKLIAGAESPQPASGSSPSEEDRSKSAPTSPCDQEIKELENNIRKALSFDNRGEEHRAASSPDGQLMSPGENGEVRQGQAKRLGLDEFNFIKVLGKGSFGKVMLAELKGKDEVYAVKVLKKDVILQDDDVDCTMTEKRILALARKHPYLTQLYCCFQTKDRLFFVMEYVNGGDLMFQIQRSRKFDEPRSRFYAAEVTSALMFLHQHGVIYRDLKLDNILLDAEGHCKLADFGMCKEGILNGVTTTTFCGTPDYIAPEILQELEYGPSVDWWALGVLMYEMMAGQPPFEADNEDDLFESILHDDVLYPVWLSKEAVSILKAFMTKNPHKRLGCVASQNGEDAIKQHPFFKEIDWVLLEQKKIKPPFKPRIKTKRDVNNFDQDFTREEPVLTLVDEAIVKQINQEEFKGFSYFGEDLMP
Sequence of IR(h) (human) (P06213 1005-1310 limits assumed): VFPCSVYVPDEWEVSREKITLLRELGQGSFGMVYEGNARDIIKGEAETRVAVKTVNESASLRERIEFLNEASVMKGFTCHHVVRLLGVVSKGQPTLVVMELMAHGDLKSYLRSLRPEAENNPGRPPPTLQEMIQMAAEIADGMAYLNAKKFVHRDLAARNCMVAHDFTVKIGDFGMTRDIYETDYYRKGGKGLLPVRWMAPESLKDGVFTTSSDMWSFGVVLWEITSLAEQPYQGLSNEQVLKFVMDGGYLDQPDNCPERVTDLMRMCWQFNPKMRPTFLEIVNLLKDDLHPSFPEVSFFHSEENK
Sequence of PAK5(h) (human) (Q9P286 whole entry): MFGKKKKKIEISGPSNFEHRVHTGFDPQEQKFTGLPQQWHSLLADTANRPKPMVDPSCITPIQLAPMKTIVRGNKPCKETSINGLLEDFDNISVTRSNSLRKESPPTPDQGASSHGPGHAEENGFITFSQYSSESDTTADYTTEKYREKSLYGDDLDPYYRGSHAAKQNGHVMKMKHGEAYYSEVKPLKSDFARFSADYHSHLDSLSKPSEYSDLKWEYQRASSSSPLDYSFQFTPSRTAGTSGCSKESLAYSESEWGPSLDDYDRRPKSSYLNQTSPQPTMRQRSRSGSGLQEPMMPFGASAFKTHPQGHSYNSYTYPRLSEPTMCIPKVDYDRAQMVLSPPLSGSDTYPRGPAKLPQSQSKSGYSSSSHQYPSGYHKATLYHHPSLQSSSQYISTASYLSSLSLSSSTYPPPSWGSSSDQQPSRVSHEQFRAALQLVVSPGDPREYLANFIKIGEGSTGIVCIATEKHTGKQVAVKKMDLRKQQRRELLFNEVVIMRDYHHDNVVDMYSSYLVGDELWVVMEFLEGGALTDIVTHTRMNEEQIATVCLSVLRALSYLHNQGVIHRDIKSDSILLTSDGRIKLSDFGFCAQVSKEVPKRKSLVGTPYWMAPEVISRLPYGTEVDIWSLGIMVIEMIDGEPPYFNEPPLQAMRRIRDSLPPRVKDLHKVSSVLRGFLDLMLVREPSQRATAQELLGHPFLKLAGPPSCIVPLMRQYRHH
Sequence of TLK2(h) (human) (Q86UE8 whole entry): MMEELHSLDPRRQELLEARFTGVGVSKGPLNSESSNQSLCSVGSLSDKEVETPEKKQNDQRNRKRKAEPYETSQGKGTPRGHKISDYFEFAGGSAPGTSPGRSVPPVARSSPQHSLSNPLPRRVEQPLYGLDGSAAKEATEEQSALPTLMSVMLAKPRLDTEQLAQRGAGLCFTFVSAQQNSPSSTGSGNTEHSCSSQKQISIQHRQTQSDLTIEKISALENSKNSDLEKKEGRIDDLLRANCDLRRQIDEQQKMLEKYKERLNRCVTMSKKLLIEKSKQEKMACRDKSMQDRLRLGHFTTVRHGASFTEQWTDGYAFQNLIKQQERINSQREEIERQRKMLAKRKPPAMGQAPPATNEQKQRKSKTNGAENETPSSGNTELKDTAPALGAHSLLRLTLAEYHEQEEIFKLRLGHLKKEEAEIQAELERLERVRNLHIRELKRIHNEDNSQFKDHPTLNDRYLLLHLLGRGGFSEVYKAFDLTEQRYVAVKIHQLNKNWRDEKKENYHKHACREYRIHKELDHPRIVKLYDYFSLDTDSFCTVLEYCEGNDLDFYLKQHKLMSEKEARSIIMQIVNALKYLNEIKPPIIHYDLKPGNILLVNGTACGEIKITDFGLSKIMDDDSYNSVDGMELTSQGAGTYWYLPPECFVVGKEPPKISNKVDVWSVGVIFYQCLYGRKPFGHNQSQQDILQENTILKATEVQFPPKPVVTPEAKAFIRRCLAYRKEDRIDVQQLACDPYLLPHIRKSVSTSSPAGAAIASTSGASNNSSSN
Sequence of Rsk2(h) (human) (P51812 whole entry): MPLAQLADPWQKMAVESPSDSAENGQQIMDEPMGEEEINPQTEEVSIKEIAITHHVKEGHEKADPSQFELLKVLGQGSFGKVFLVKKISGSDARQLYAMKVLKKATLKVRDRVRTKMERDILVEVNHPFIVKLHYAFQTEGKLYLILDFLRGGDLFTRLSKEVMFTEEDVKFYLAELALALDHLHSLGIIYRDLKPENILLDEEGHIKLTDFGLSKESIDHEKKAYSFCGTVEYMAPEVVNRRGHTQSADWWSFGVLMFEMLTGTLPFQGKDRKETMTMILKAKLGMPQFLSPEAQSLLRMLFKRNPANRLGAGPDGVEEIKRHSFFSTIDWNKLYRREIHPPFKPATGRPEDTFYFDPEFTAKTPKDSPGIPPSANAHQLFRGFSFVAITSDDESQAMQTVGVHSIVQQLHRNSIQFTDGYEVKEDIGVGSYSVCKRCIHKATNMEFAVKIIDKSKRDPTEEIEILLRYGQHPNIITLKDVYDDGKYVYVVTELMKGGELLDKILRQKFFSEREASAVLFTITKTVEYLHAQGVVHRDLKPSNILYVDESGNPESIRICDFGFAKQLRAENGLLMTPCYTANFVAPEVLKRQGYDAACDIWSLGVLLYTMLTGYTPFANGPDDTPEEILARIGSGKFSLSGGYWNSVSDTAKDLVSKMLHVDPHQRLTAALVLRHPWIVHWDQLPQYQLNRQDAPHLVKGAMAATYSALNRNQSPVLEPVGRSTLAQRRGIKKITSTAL
Sequence of cKit(V654A)(h) (human) (P10721 544-976 V654A): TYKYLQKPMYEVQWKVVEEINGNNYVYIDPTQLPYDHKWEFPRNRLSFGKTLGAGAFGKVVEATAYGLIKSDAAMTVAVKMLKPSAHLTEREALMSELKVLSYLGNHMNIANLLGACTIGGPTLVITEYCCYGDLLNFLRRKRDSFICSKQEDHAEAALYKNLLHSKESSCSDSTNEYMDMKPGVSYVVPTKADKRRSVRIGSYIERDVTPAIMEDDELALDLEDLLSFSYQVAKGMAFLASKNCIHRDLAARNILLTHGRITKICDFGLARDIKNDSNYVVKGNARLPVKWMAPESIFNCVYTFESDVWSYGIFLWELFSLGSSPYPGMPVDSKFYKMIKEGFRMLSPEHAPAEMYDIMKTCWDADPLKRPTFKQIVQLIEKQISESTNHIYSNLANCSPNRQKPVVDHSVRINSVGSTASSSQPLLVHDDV
Sequence of SAPK2a(T106M)(h) (human) (Q16539 whole entry T106M): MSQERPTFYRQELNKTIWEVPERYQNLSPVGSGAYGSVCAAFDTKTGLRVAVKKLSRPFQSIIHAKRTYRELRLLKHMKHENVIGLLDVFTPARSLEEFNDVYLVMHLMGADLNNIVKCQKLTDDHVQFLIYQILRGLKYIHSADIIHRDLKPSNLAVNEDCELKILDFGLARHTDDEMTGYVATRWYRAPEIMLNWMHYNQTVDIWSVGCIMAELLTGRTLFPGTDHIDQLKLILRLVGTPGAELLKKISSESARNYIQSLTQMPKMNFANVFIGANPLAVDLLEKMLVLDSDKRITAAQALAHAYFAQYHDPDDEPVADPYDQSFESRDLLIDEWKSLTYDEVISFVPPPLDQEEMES

Substance: MMI-0500 (peptide)
- % activity, 100 µM (Rsk2(h) (human)): 14%
- % activity, 100 µM (Axl(h) (human)): 12%
- % activity, 100 µM (IR(h) (human)): 95%
- % activity, 100 µM (Hck(h) activated (human)): 67%
- % activity, 100 µM (cKit(V654A)(h) (human)): 223%
- % activity, 100 µM (Bmx(h) (human)): 45%
- % activity, 100 µM (SAPK2a(T106M)(h) (human)): 32%
- % activity, 100 µM (PKCε(h) (human)): 23%
- % activity, 100 µM (CK2(h) (human)): 93%
- % activity, 100 µM (SGK2(h) (human)): -1%
- % activity, 100 µM (EphA5(h) (human)): 42%
- % activity, 100 µM (TLK2(h) (human)): 133%
- % activity, 100 µM (Met(M1268T)(h) (human)): 239%
- % activity, 100 µM (PAK5(h) (human)): 125%
- % activity, 100 µM (JNK2α2(h) (human)): 81%
